Test: soluble on expression in E. coli; label from the status in PepcDB or PDB records

| Sequence | soluble on expression in E. coli |
| --- | --- |
| SGERDQSSDTDQERKGGKHPYSSHYSSDFGSSPQSSGPSSPVNTPPCASNREKNPKRHLSDHHVRHQTVRKVSPKAIPNKKGVRVGFRSQSLNREPLRKDPDIVTKRVLSARLLKITELQNEVSELQVKLAQLLKENKALKSLQYRQEKALSKFEDAENEISQLIHRHNGEITALKERLRKSQEKERMAEKRVKDTEGELFRTKFSLQKLKKISEARHLPERDDLAKKLVSAELKLDNTEKD | not soluble |
| MGSDKIHHHHHHMRNIPDQEEYFALLIEFDFEDFNDLPQNAGTSQNYVQGQLNPLLESALHQFIDFSLVAPPSAFKFRKRELLELIYYSGYTAIAKLNMNKSLSERVQTLISYHLSTELTAEFIAAQLFMSSSTLRRKLKSEGNSIQDIRNRVRLGHGLHLIQTTNNSIGNIAFECGYQSQSRFTEQFKNLFGITPRELRKTKMLT | not soluble |
| MRVAIVGTGIAGNAAAWALSQRYPVTVYERELRAGGHSHTVTVDYDGTTIPVDIGFIVYNQLNYPDLTAMFAHLGVETVESCMSFSVSADAGRFEWKGGGSNWLETADGLFAQRRNLLSPSYLQMLRHILVFNEKSVEDFKTGALAGLTLGDYFESRKFAPRLLTDYLAPMGAAIWSAPASQILDFPAENFVAFFNNHRLLHYERPIWRTVKGGSARYVEKLTSAFKDDMRLGAAVTSIERSPKGVIVRDSLGGLGVFDHVVIGAHSDQALAMLSDASDIERDILGSIGYAPNMVYLHRDPRLMPKRKRAWASWNFLRWQREGSPVNDVAVTYWMNRLQGIDADKPLFVSLNPPFEPAPELTFGRYACDHPQYTAKAFAAQRRVGELQGHRNTWFCGAWTGYGFHEDGLRSGLAVAEHLGAPVPWRGPPSEFREAAELEHHHHHH | soluble |
| MNPLHLETLLAIIDEGSFEDAAFALGISPSAVSQRIKALERETGRVVVRRTSPVTATDAGEVLVQSARRMALLQAETNAQLRGRIERIPLSVAVNADSLATWFRRVMASVAEMDNATLHMRIEDESHSLSLLRRGDVLGAVTGEKTPVSGCDSIALGAFRYFAVASPKLLDRYTIDGAVDWERMPVLRFGPRDGLQDRDIKRRLGEVPAGRRVNEIPSSEAFMEAARVGLGWAMLPDIQALPLLDSGEVVMLDSEVHEVPLYWQRWRLESPALERLTQAVVDAALEGLHPLSA | not soluble |
| MSLIVLKFGGSSIKYDFEEATNLALSLFEDDAVIVVVSAIKGITDKLILYSQTLDKTIATKIASEYVSFAKSHGIDPVILKPYLDELFNLPDLPEEALRDYILSLGEVLSAVIFSASIGGKFVPSWDIFEAEGNFGNAFIDIKSSKKKFKRVFEVLEEGYIPVIPGFTAGKDGYILTLGRGGSDYSGVAAGVLGKAKLVAIMSDVEGIYTADPKLVPSARLIPYVSYDEIIISSKHGMRALQWKAAELAKEYKIPVLFGRTRNWRMGTLMSERSSGMPLMTYKDGLLLVNVTEEIKYPIIAEGPFWKLYKVSQEEGIHLMRELHTKLFQPSFIQYSVYKSSENGQKTQEFNEKISIEQGENRKIYYSEEEVNLPGEGHHHHHH | soluble |
| MGHHHHHHSHMRTISFFNNKGGVGKTTLSTNVAHYFALQGKRVLYVDCDPQCNATQLMLTEEQTESIYLDGLNDEVAERNSLAKTVYAIFVPLREGESQIAAEITPMRSERFGVDVLPGHPALSQIEDLMSDSWQSALGRQTGPFRRIHWAGQLAHAMERDDRYDVIFFDVGPSLGPFNRTVLLGCDAFVTPTATDLFSFHAFGNLARWFDAWVTQYAEIHEGNMAEWKKYS | not soluble |
| MGSDKIHHHHHHMTKPFYWNELNTYDFASLSPDSTIAVLPIASTEQHGPHLPIATDVAIANGMLAELKRQRPDDLNFLVLPTQEIGKANEHVYGPGTLSLSADLLIAAWTAIGAKVAEAGLRKLVIVNSHGGNVDIMSIVGRELRVRHKMAVVSTQWSRFGNPEGMISEHENRYGIHGGEVETSLMLHFRPELVRMDKAENFVSKAEWMKERSDFLQPLPPHSLAWIAHDLNPAGVVGDASKGTAEKGEAICRHQVSGFIQLLRDVRDYPLSALYSPE | not soluble |
| IEEVYEATLDAIQGALNCDRASILLFDEAGTMRFVAARGLSEHYQRAVDGHSPWITGANEPEPIFVENVDDAEFSRELKESIVGEGIAALGFFPLVTEGRLIGKFMTYYDRPHRFADSEIGMALTIARQLGFSIQRMRAEYARRQAEE | soluble |
| MSLKRLNCRRKGIRVRILAIDTSNQTLSIAVCENQKILGSYTATVKRNHSLTLMPAIDYLMSQLNLAPTAIDRFVVAEGPGSYTGLRLGVTTAKTLAYTLKKELVGISSLQTLAANCVGQTGLIVPLFDARRKNVYAGAYRFVNGVWQNELPDQHISLRELLEQLKNEPNLFFVGEDVEKFTEEIAQIIPHGEICDVPQWQIPNAAVLAALGSVAEPVENVHGFLPAYLKKVEAEENWLKTHTPNGESYVEKLEGHHHHHH | soluble |
| SNDFNWTSVFNLSHNRNKIVSLNGLLDQTIEGTWFIHKVGLPYHTFYVKEFAGVDPLTGSAQYYLNTKNEDGSYNRELTTDAAKAESIPYKTATPKVSGGFTNILNYKWIDLTFTLTYSLGGYSFDKLGTYIENGSSSIYSSRYNLPAYMMNRWQKPGDQTDIPRFVYGEPATSTNSSRYIHSTDHLRLKNFTLGFTLPNQWTQKLMIDKVRVYFSGNNLLTWAKWKQYDPETPVNGEVFCEAPAMRTFSFGAQLSF | not soluble |
| MSSDHVFKYVIIGDRGVGKSNLLLRFIGKPFDSIHPSTLGIEFGFRNLEIDRKKVKLHVWDTCGQERFRSLVGSYYRHAIGALLVYDITSRESFYHLEHWLTDLQRLGDPDIVIVLIGNKSDLEADREVRKEEGEAFAREFGLIFMEISAKTNEYVEEAFVNSAHEIYRKLNFGIIKEICVKKKKKKMNIIIRSISGKEKACC | not soluble |
| MKEYRIDDLAREARVSVRNVRVYQDRGLLPPPRKQGRTGWYNESHLARLHLIGRMLDRGYTFATISELLTAAHYGLQVKDVLETDDPGSRWKKRRRAARLTIAELKRMFGAQTTEANIAKGTELGVLVPAGDDYSVNDPRLVEAAQVLVDAGIPLEAVLEQTAAVRRDLSDVAARFVAVVADRYLAAEGEPLELDEAKVSEIARLVDQMRPLAHDAVQSLFEEAMEEQISKALERAARQLGETPGPATSTDTNRAS | not soluble |
| METTVMPAAASVQKQQGLNQVVINKVQRMIESRQGGVMDTINRLLSEGRIAQDFIAPIGVSQRSKERPVISFKAEGRVQMAMPEGNFNLHGNAISQISEKMGIPAKYLRELSAGDVWQKQLCATILNEHSGWTERTRVLIRAVGMEVRGVLSDSYRRLNSVDILTAFIREAGGQGAVVSDAYMNDTKVWCETILPTPIEIPTRKNGTVIIFAGARFSTSDYGNGSVEMRSFLLNGACLNGMVRESVMRQIHLGGRLPESLSLSQKTYELDTQTTVSAVSDLTKGLYSKDTIMQKAIEIQGASEIDVDFDKELKNLVQKGALLKNEGREVEKLLMNNNPDDGVTGGATLWKLTQGITAFAREQQPERCRELHEISGQLMNRVKIN | not soluble |
| GMPQHDKSRLVRIDTGPMINPVAGKPSRPIAGDASFRTVTAFEGGQGKVESGVWESTSGSFQSNTTGYIEYCHIIEGEARLVDPDGTVHAVKAGDAFIMPEGYTGRWEVDRHVKKIYFVTHLA | soluble |
| MSLGSFTDVPANSQFYTEISWLASQGISTGWVEANGTSTYRPALAVNRDAMAAFMYRLAGSPAYTPPGTSPFIDVTPQTQFYKEIAWLASKGISTGWDEGNGAKSYRPLQTVNRDAMAAFMYRFAGSPAYNAPGASLFTDVVPQTQFYKEINWLASMNISTGWVEGNGTRTFRPVQSVNRDAMAAFMYRYNNAFPAEGHHHHHH | not soluble |
| GPGSMGEGRIRCYYEVLEVERKATYDEIRTAYKKKSLQYHPDKNYGNQEEAAMRFKEVQNAYSILSDADERAWYDSHREAILRGGDGTGDLDELNLYEYFTAGCFDGFDDGESGFYTVYRKVFDILIEEESDYDSRAKLWPGFGTSTSDWADVQKFYGYWRNFSTYKTFTWKDEYKVNEMEDRYSRRMAGRINSKARDGAKKEYVRTVQSLAQFVYRRDPRVKAELERQEKEDQAKREERERQEIERLKRRREANERVWAEAAEREAREEAERAARGEAMDGSILEMLYEKERQTKEMMRGSGGVGAHTAGFAMLGGDDDEAVTVFNCPACKKQFKSENQYKEHVRSNKHKTKLKQLAAKGTDVAALMGEKVEGGSGGTEE | soluble |
| MGSDKIHHHHHHGKKDKEKIIDDFKVAVVTQPLSENKVQYNMVEEMAKEYEEENKIDKDKDGQTKVKQTIKHVVLPENFTSNIDSAINKIVKLADDKEVQAIVVSTDQAGLLPALQKVKEKRPEIITISAPMGDDKNQLSQFVDVNLGVSAEERGKVLAERSKEMGAKAFIHYASTDDLKDVNIAKRLEMIKETCKNIGLPFVQVNTPNINTEEDKNKVKQFLNEDIEKQVKKYGKDINVFGVNEYMDEVILTKALELKYIVAEQSNPSPIQTYPSVMGLKISEKDAQNYDKINDMISEKAKAFGMSNRLGGYPMPMDAFLPSLAIYLATEMVKQDLTQEDVCDPDYLEAFTELRFGIGSEFTPLTEVLYNYQSVILSQLIY | not soluble |
| MMKTLSPLKASLFAILASSTVLVTTVSAEPSQECDHPRSEFHKRGDRMGHDGMHKMFEGLELTDTQKADIKKLFAEQRAARSDDKPTKEERLARRAEMHALITAATFDETQAKALIGAQQEKRQAQAIERMKMQNQIYNLLTPEQQAKFKARFEAHTGKEPRSLEHHHHHH | not soluble |
| MGSDKIHHHHHHMIKKIYFIMVVIGSILLSSCDSYLDIQPVGQVIPTTLTEYRALLTTAYGLKLIDKSVTEFRTDIAMVTDNSNSQNFYSEIEKWNDMSPKDGTREFGWAVYYSVIYYANAIIANKDNIKEGSQEDIDQLVGEAYLLRGYMHFILANLYGQPYTKEGAPETKSIPIKWDLDLEVVLPRNTVKEVYTAILSDIESARGLMHQKEWEAVYAYRFSTLSVDAMESRVRLYMGNWKEAYDAAERILVQKSTLEDLNDPEAKLPNNYTSAEMITAYEFFNDDVTSASILIPAFMEKYDANKDLRRNKYYSLSGDKYISKKSGKAEHNCTFRTGEIYLNAAEAAAQMNKLPEARTRLLQLMEKRYTPEGYAEKKKAVDAMNQADLIKEILEERALELAFEGHRWFDLRRTTRPRIEKVLNGQAYLLEQDDSRYTLRIPQSAIAANPGLLN | not soluble |
| MGGSLGLALQEWGRFKSVIGYDHNALHAKLALTLGLVDECVGFEKILECDVIFLAIPVEGIIGCLKKMTSIKKSATIIDLGGAKAQIIRNIPKSIRKNFIAAHPMCGTEFYGPKASVKGLYENALVILCDLEDSGTEQVEIAKEIFLGVKARLIKMKSNEHDTHVAYISHLPHVLSYALANSVLKQNDPEMILSLAGGGFRDMSRLSKSSPLMWKDIFKQNRDNVLEAIKKCEKEIVQAKAWIENNDYESLAEWMAQANKLQEFMLEHHHHHH | not soluble |
| MGSDKIHHHHHHMSSHQLPFQRSDEEVQASSGDSLTIARKQEVVQLLKQISDRTLKNDIISLGMVRNLRIVDDYIYLRLYIGSHQHQLETEIQTVLSSLTWSKKTYIQLCTIPGVRTTLAVSSGKGGVGKSTTAVNLAAALQLAGAKVGLLDADVYGPNVPQMLGLGKSEVKVIDTPKGQRFVPLEAHGIKVMSVGLLAEADHPLAWRGPVLHKIITQFIHEVEWGELDYLLIDLPPGTGDAQITIVQESPICGVILVTTPQNVAISDVRRSVYMFRQVGVPVIEIIENMSYFIGNGGEKISIFGSGGGQKLVEELKAPLLGQIPIDPLICNGGDVGEPLMLVDPNSKASQVFVQIAGALNATFSGSM | not soluble |

Reference: the DeepSol protein solubility set
